This is an account of results in the supplement of paper PMC10567573.

± gives the standard deviation.

This data set is described as follows: protein stability index of a GFP-peptide fusion (GPS, HEK-293T) (PSI 1-6); higher = more stable.
Where [1] appears, read: treatment: DMSO, c terminus: a fixed tail appended.
[2] abbreviates: treatment: MLN4924 1 uM, 8 h, c terminus: a fixed tail appended.
Setting [3] is: treatment: DMSO, c terminus: native.
Setting [4] is: treatment: MLN4924 1 uM, 8 h, c terminus: native.
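Note: 24-mer peptide tiles fused after GFP, lentivirally expressed, FACS-sorted into six equal bins by GFP/DsRed ratio, decoded by Illumina sequencing, PSI is the read-weighted mean bin number.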

For SAQRSKDPNSQVGACIVNSENKIV [DCTD], the protein stability index runs as follows: under setting [1], 4.91 ± 0.17; under setting [2], 4.98 ± 0.12.
For LCRRLNTLNKCAVMKLEISPHRKR [DLC1] the same measures were 2.12 ± 0.069 and 2.85 ± 0.22.
MKEPITKAEILESVIKNYEDHFPL [MAGEA10] registered a protein stability index under setting [1] of 3.98 ± 0.31 and a protein stability index under setting [2] of 3.93 ± 0.38.
For the sequence QRQVWLLFEYPESSGPARGIAIVS [KCNA3], the protein stability index was determined as 2.69 ± 0.21 under setting [1] and 2.48 ± 0.77 under setting [2].
The like results for LYGGMNYRRLGGGVGVIKMTHCES [KLHL20] were, in that order, 2.3 ± 0.25 and 2.85 ± 0.66.
Regarding VSGSPVTQNHAASALPTGSPKRGT [FBF1], the protein stability index turned out to be 5.27 ± 0.16 under setting [1] and 5.22 ± 0.25 under setting [2].
For PLHAPEAYFPYFKKHNVTAVVRLN [CDC14A] the same measures were 2.17 ± 0.094 and 2.08 ± 0.37.
For GRKKYDIDPRNGIPKLTPGDNPYM [SPATS1] the same measures were 3.57 ± 0.18 and 3.71 ± 0.32.
The like results for PVSMEMDNHMSDKDESCYDNAEAA [INTS3] were, in that order, 5.53 ± 0.36 and 5.53 ± 0.23.
The sequence IKVEQATKPSFESGRRGPPPPPRS [RBMX] returned a protein stability index under setting [1] of 4.06 ± 0.36 and a protein stability index under setting [2] of 4.17 ± 0.34.
Consider ITGLPLDNPSVLSGPMQAALQAAA [SMG5], for which the protein stability index by setting is: under setting [1], 3.08 ± 0.2; under setting [2], 3.11 ± 0.082.
For PMDVYETGIEYIVAQGPTNQGLNV [ADAMTSL2] the same measures were 3.19 ± 0.68 and 3.54 ± 0.39.
For the sequence AEALGKLLQQNKSIQSLTLEWNSL [LRRC45], the protein stability index is 2.13 ± 0.16 under setting [1] and 2.25 ± 0.32 under setting [2].
For TVAMSTLNFCGPNVINHFYCDLPQ [OR3A1] the same measures were 2.39 ± 0.47 and 2.22 ± 0.17.
On to YMIHEPEPHILLFRRPLPKKPKK [CKS1B], for which the protein stability index under setting [3] came to 2.55 ± 0.23 and the protein stability index under setting [4] came out at 2.99 ± 0.5.
Regarding RHAEQQALRLEVRAGPDSAGIALY [CARM1], the protein stability index is 2.54 ± 0.43 under setting [1] and 2.81 ± 0.7 under setting [2].
Turning to EKLCSISLSHINAYACLVCGKYFQ [USP39], the protein stability index was 2.67 ± 0.56 under setting [1] and 2.61 ± 0.58 under setting [2].
The like results for EVDAAPPVDLNKILEDMRCQYEAL [KRT36] were, in that order, 4.59 ± 0.13 and 4.68 ± 0.096.
The like results for SSTSPLMEGTPTIKSKKKLLQIID [VPS39] were, in that order, 3.76 ± 0.23 and 3.79 ± 0.23.
Consider RLAAIAQEKDQEMERLRELQRASI [FBF1], for which the protein stability index was 4.34 ± 0.17 under setting [1] and 4.43 ± 0.22 under setting [2].
For NLQDTLEAASFLQILPVLDFCKVF [KLHL13] the same measures were 2.73 ± 0.35 and 2.63 ± 0.52.
On to YHTGKTPFVCPECGQPCSQKSGLI [ZNF649], for which the protein stability index by setting is: under setting [1], 2.53 ± 0.59; under setting [2], 3.24 ± 0.58.
For GWGDCVWLPYLYTLQGLYLVYHPV [DHCR7] the same measures were 3.81 ± 0.74 and 3.25 ± 0.55.
The like results for GGCGGPRAWSQCGGGGLRAWSQRS [CPOX] were, in that order, 2.73 ± 0.74 and 2.56 ± 0.46.
The like results for ERLAEAEKSQLIMQAEAEAASVRM [FLOT1] were, in that order, 4.84 ± 0.39 and 4.66 ± 0.3.
As for HRTHTGERPYGCDECEKAYFYMSC [ZNF649], the protein stability index under setting [1] is 2.68 ± 0.17 and the protein stability index under setting [2] came out at 2.54 ± 0.26.
For ASALTLVLGGRRLRRAWFSWPRAS [SCNN1D] the same measures were 2.13 ± 0.39 and 2.05 ± 0.28.
The like results for LMPGMPPGMPPPVPRPGIPPMTQA [ZNF207] were, in that order, 4.01 ± 0.34 and 4.2 ± 0.31.
For AGGTSDDPEPSGPHLPRVMLPGVL [SCNN1D] the same measures were 4.14 ± 0.21 and 4.16 ± 0.13.
Take ILTFLRAGKLRLLREMCALSFQEE [KCNG1]: the protein stability index is 3.24 ± 0.69 under setting [1] and 2.19 ± 0.28 under setting [2].
Turning to PVIEELTNAGFLQTESELQELSEV [FAN1], the protein stability index under setting [1] is 4.87 ± 0.1 and the protein stability index under setting [2] amounted to 4.92 ± 0.16.
GVKISEQQAEKILKSMDKNGTMTI [SLC25A25]: the protein stability index runs as follows: under setting [1], 3.73 ± 0.13; under setting [2], 3.7 ± 0.22.
Take CPEVKLKTTGLEEAAEAETAKDNG [SRPK2]: the protein stability index was found to be 5.5 ± 0.27 under setting [1] and 5.49 ± 0.26 under setting [2].
The like results for FWHDTLTEQLWRIFAGVHDEKAKP [TLE6] were, in that order, 2.23 ± 0.41 and 2.41 ± 0.76.
The like results for RKTHVLLGRSHDTVQEAATSRRAR [MFSD9] were, in that order, 4.64 ± 0.41 and 4.73 ± 0.27.
The like results for DAAGHGFCYCAGSHKRKRSSGSFC [GMCL1] were, in that order, 3.08 ± 0.22 and 3.35 ± 0.15.
With SFGQVVKAYDHQTQELVAIKIIKN [DYRK1B], the protein stability index runs as follows: under setting [1], 2.76 ± 0.31; under setting [2], 2.97 ± 0.2.
Consider QFSSRDCTRPVPRNGGKYCEGRRT [ADAMTS4], for which the protein stability index under setting [1] came out at 4.22 ± 0.47 and the protein stability index under setting [2] came out at 4.51 ± 0.55.
Regarding EMPTQPGKPLIPPMNRRNILVMKH [NETO1], the protein stability index is, setting by setting: under setting [1], 3.21 ± 0.045; under setting [2], 3.27 ± 0.24.
PSLGPALSTGPRGLCAMPQTGDAF [VENTX]: the protein stability index under setting [1] is 3.64 ± 0.089 and the protein stability index under setting [2] was found to be 3.6 ± 0.17.
Regarding DFIDCVREKGGKVLVHCEAGISRS [DUSP5], the protein stability index came out at 2.77 ± 0.2 under setting [1] and 2.79 ± 0.41 under setting [2].
Regarding QPKEPQLTCDSAQKCHSIGETDEV [ZSCAN9], the protein stability index under setting [1] was 5.43 ± 0.22 and the protein stability index under setting [2] was found to be 5.57 ± 0.21.
The like results for EEAEGARWTSYRFSRVCRLHRGQL [TRIM35] were, in that order, 2.91 ± 0.23 and 3 ± 0.08.
The like results for SGDPPLSSNVSLSLFVLDQNDNAP [PCDHGA10] were, in that order, 3.63 ± 0.09 and 3.59 ± 0.27.
On to EELLYDYGDRSKASIEAHPWLKH [KMT5A], for which the protein stability index under setting [3] was determined as 4.9 ± 0.39 and the protein stability index under setting [4] was found to be 4.83 ± 0.28.
Take SASVIFEGVDIKNGTEDLPYAMKP [NSDHL]: the protein stability index under setting [1] turned out to be 4.39 ± 0.12 and the protein stability index under setting [2] was 4.28 ± 0.26.
Turning to TGHGVSRGPSPVVLGSQDALPIAT [FCHO1], the protein stability index is, setting by setting: under setting [1], 4.17 ± 0.14; under setting [2], 4.14 ± 0.045.
For RLQGLEADCVRGPDGVCLSGGRGP [PBXIP1] the same measures were 4.4 ± 0.082 and 4.24 ± 0.32.
For CEKTFNRKDHLKNHLQTHDPNKMA [PLAGL1], the protein stability index reads like this: under setting [1], 4.31 ± 0.26; under setting [2], 4.42 ± 0.16.
The like results for RSRREQFSRAPVSALPLAPNHLGG [STX5] were, in that order, 3.46 ± 0.15 and 3.77 ± 0.31.
The sequence ELVLEQQLDREAQARHQLVLTAVD [PCDHGC5] gave a protein stability index under setting [1] of 3.99 ± 0.15 and a protein stability index under setting [2] of 4.103 ± 0.038.
As to KHFCPRAPVILVGCQLDLRYADLE [RHOBTB2], the protein stability index is 2.3 ± 0.65 under setting [1] and 2.52 ± 0.59 under setting [2].
For EFDYLKSLEIEEKINKIRWLPQQN [PPP2R2B] the same measures were 2.62 ± 0.21 and 2.9 ± 0.42.
The like results for YSLAEDTIQGVPLSSYISINSDTG [PCDHGA10] were, in that order, 3.53 ± 0.2 and 3.47 ± 0.28.
The like results for TGPLQPQPKKPEDEPQETAYRTQV [PKD2L1] were, in that order, 5.11 ± 0.45 and 5.3 ± 0.2.
Consider IMNEKCVVENAEKILGYLNTNVLS [SLC6A17], for which the protein stability index under setting [1] was determined as 2.92 ± 0.35 and the protein stability index under setting [2] was 2.47 ± 0.5.
Take PAVRQLLPCARVQICRAQGLETLF [ZSWIM9]: the protein stability index stood at 2.19 ± 0.49 under setting [1] and 2.5 ± 0.64 under setting [2].
For ISVLAFSVCFIFTITIGMFPAVTV [SLC29A1] the same measures were 2.96 ± 0.13 and 2.92 ± 0.32.
In the case of KERKLECLPPEPSPDDPESVKIIF [FAF2], the protein stability index reads like this: under setting [1], 3.97 ± 0.22; under setting [2], 4.04 ± 0.16.
With MKNEKLLSKASEPKYQLFVPQLVT [RNF180], the protein stability index by setting is: under setting [1], 2.69 ± 0.3; under setting [2], 2.82 ± 0.24.
On to LTTKGEMPVQLTSRREIRKIMGVE [ANKRD40], for which the protein stability index was found to be 3.7 ± 0.048 under setting [1] and 3.85 ± 0.18 under setting [2].
LTRQLVSCSSDGGIAVWNMDVSRE [WDFY1] displayed a protein stability index under setting [1] of 2.96 ± 0.32 and a protein stability index under setting [2] of 3.08 ± 0.2.
For PTHLSNGQMSTPETPQPSPPGGSG [HNF4A] the same measures were 5.15 ± 0.15 and 4.98 ± 0.24.
For RVFLFQAPSKEEMLSWILRINLVA [PSD2] the same measures were 2.64 ± 0.54 and 2.7 ± 0.46.
For CLDTIDKSTMDAISAEGFTDIDID [BTBD1], the protein stability index runs as follows: under setting [1], 4.88 ± 0.19; under setting [2], 4.82 ± 0.22.
QNVRNHIHSCFSDVTCFLLPHPGL [ATL3] gave a protein stability index under setting [1] of 2.49 ± 0.65 and a protein stability index under setting [2] of 2.29 ± 0.55.
The like results for IFTTPNFDETSSATTISTSEDGSY [KMT2E] were, in that order, 4.75 ± 0.13 and 4.67 ± 0.26.
Regarding INRWRFLLQCLEDLDANLRKLNSR [CRY1], the protein stability index by setting is: under setting [1], 2.06 ± 0.16; under setting [2], 2.45 ± 0.15.
As for CAIQMFSFLFLGCSHSFLLAVMGY [OR10K2], the protein stability index worked out at 3.41 ± 0.14 under setting [1] and 3.46 ± 0.37 under setting [2].
As to VLPHVPLGVIQRDLAKTGCVDLTI [AUP1], the protein stability index is, setting by setting: under setting [1], 2.14 ± 0.25; under setting [2], 2.37 ± 0.37.
The like results for PTMHLESPALQVMGPAQEAPVAEA [ZNF449] were, in that order, 5.22 ± 0.17 and 5.21 ± 0.07.
For WQQQSYLDSGIHSGATTTAPSLSG [CTNNB1] the same measures were 3.71 ± 0.1 and 3.78 ± 0.33.
